# In the DeepSol protein solubility set:
# Assay: soluble on expression in E. coli; label from the status in PepcDB or PDB records
row,Sequence,soluble on expression in E. coli
1,MWMKDPVARPLSPTRLQPALPPEAQSVPELEEVARVLAEIPRPLKRRGSMEQAPAVALPPTHKKQYQQIISRLFHRHGGPGPGGRSQSCPPSLRDLRPGQGPLLLPHQLPFHRPAPSQSSPPEQPQSMEMRSVLRKAGSPRKARRARLNPLVLLLDAALTGELEVVQQAVKEMNDPSQPNEEGITALHNAICGANYSIVDFLITAGANVNSPDSHGWTPLHCAASCNDTVICMALVQHGAAIFATTLSDGATAFEKCDPYREGYADCATYLADVEQSMGLMNSGAVYALWDYSAEFGDELSFREGESVTVLRRDGPEETDWWWAALHGQEGYVPRNYFGLFPRVKPQRSKV,soluble
2,MSLTQSHHDHVEKQFSSQASEYLTSTVHASGRDLQRLAVRLADYPDASVLDMGCGAGHASFVAAQNVSTVVAYDLSAHMLDVVAQAAEARQLKNITTRQGYVESLPFADNAFDIVISRYSAHHWHDVGAALREVNRILKLGGKLIVMDVMSPGHPVRDIWLQTVEALRDISHTRNYASGEWLTLISEANLIVDNLITDKLPLEFSSWVARMRTPEALVDAIRIYQQSASTEVKTYFALQNEGHHHHHH,not soluble
3,MHLELHQINGNDPLGTIIGERNYQLPIPLPYTMKTVKQIHSGIWHTVIRGYDQYNRPQIATFGKNYDGQLGTGDCENRDTPTPIKLPPEMLTFHAIQTGFFHTIATGLDKNGFPIVASCGYNSDGQLGCGDKDNKNTLIPIKLPENMKSVEMVATGVKHTVIVGKDINNKPVVATCGHNGYGQLGTGDEENRLCLTPIGIPEDITSVDYVGAGAYHTVICGRNIKNQPIITLCGCNSDGELGFAPQKIAKKSSLMTNPAMFFPPRQDKSAINNLMKISKFSPCNLL,not soluble
4,MGSDKIHHHHHHMEQTTQTQLVEIQQVVLRMSKYFVAFCEEHNLTCYFCGGGCIGAIRSQGFIPWDDDLDFFMPRPDYEKLKVLWPKYADTECYPLLVASKTYNDHNSFMTIRDAQTTFIKTYQDGLAIPHGIPIDIFPLDGAPKGNFQRKKQKIWALIYALFCSQVVPEKHGGILATGSRVLLNIFPSKKVRYHIWRFAEKRMTKYSFGSTPYVTELCVGPRYMGNIYHLEDFKSAIFVPFEDTKMPIPVGYKRYLTEVFGDYMQLPPEEDRQPHHEALIVDTKKSYTEYLKK,not soluble
5,MTTHQVKKSEAKRQHILDSGFHLVLRKGFVGVGLQEILKTSGVPKGSFYHYFESKEAFGCELLKHYISDYQIRLNQLWTTETSARDKLMNYLQCWVKDPATEQSWAESCLIVKMAAEVADLSEDMRLIMNDGVKRLIARMADLIRIGQQEGSIQTSVVPDVLAQVIYQMYLGAALLSKLYKHKAPLFQALESTKMMLDGCNHVQQDKNQ,soluble
6,MAHHHHHHMISYSGVLYTSDLMAQLMEMVKYSTHASSRDSDAQRLLRYAVRGSSAAQDDLYRSLWLKVEMVADSRVLGRYIGAREPWSPIRVCFDERGLFKSYPPLVHASAKKTSAIEADATSGSGSTTMEEEQRQQSERQGMSTEITSHTSEGGEEMVEGVRGAVVAEASEASGVKDVALQEASHGEQRTVEALDLRWDDIHRLIERTRALTSPPTERHPQQEKMEIFTGIAVYLRTIATGRRYCSGEEEAGGEYPAESRERALFAVGYELDVWARLFELVQEVRHDMEKFITDNAAHHVEPEFECWEALLITLRCILDFCVVRTQEKGKEERAAVEELFEKTMKLRNELVEESRTRFGGRMRILWLQEA,not soluble
7,MGSDKIHHHHHHMITVRDLSWQYEPLVDGGKPVDSLKHVSFDIKSGSFVGVIGPTGAGKSTLCMALAGIIPNLADGTMTGLVEVNGMNTSRHSVSALSERIGYVQQDPEAQLFCASVEDEIAFPLENRGIAPDIIDKQIDVMLDLVGMTGYRKRVPASLSGGQMQRVAIAAALAAEPDVLILDEPTAALDPEGKQEVFDVLERIRQTRSMTVIMAEQDTEHIAYWADQVLFMVNGELVRNGDASLFVREKGLLESSGVQVADDPLPQVKAVQQGKKHKKDKKNQPERSKDVVISLDHVSYQYERGGNASKALDDVTFDIERGSFIGLIGRNGSGKTTLAKHLNGLIRPTQGTVTVDGLDASKHSVGEMAAHVGFVFQNPDHQIFCSTTKEEIAFGPTALGLDGATVFKRVDEMLTLFDLHRYEDVSPATLGYGERRAVALSSVLAMRTPILVLDEPTAGLDHRLAARFLGTIEKLNQRGVTIVMISHDMRAVYRYCTHVLELEDGKVVQYGPIDRSEAAQKQSRTIRKPRKSNGPVSATHVLLKVTKHEEGRH,not soluble
8,MEELVGLLRIRVKRGINLAQRDTLSSDPFVVITMGSQKLKTRVVENNCNPEWNEELTLALRHPDEPVNLIVYDKDTFTSHDKMGDAKIDIKPFLEVHKMGLQELPDGTEIKRVVPNRENCLAEASSIVSNNGKIVQNMILLLRNVECGEVEIQLEWIDIPGSRGL,not soluble
9,MASTARSLRYALAILTTSLVTPSVWAHAHLTHQYPAANAQVTAAPQAITLNFSEGVETGFSGAKITGPKNENIKTLPAKRNEQDQKQLIVPLADSLKPGTYTVDWHVVSVDGHKTKGHYTFSVK,soluble
10,MGSDKIHHHHHHMKATLKSLRETKANPAVSIFVKTHREHPANDKDPIALKNQLKVVEERLTNEYDKRTATTILDNIHAKTKEHNHNLNLDTLAIFASTDDVQVIRMPIDTTERVVISHRFATRDLVRDMASAVHYYTLVLTRDKARLIEVSNDRVIREFDLDDTAQNNMENIPFPIDNNGLHTTSDGGSDRSANNDSSALKEFFNQVDKSVQELWGEHKMPLVVVGDTKNIGYYKDVCDRPDNIIATVSNATNLEEGSAQHIINSVQEAVEGYRTSLHQAALGEIDKARGANRLQTDLQEVYRSAFQGVGDTLYVRRGYIQPAKIDEKAQTLSLADDSGAEGITDDAIGEIIEHVIHNGGKAVFMPQDIMSEDQPIALVTRY,not soluble
11,MSRQPLSREDTAILVPALNEALRIREVVTDALTYCSHVIVIDDGSDDGTAECIAGMPVTLIRHPQRMGKGAALRSGFAQAQRLGMRAVMTMDGDGQHKAADFPRLLAAANRHPGCVIIGARMRKRATQPTIRRIGNDFGDWGIAWGCGFRLIDSQSGQRLYPASVFTLPNVPGEGFVFEAQLLISAARQAGARVVAVPIETRYAGTSPGTFRKSHFRLVRDLWNITSHVVKQVWAYGHVWREYRRVRANPVIVDDPDGEFATVPAVTKSNHSSLEHHHHHH,not soluble
12,MIPLFNFAIKQFMNQRMKNIRGFMEHPIETQQRVLKNLLQQAALTEWGKTHGYKDIQSNEQFAQQVPVSTYETFYPWIERCLKGEQQILWQSDIDWFSKSSGTTNAKSKFIPVSKESLKDCHYKGGMDLLTLYFDNAPESKLFQGKSLAVGGSCSPNPHRDNSKIGDISAVIMANLPTWAQYARTPSIQTALMNEWEAKIDKLAEECSKENVTNLSGVPTWAVLLLEYMLEKSGKENMLEIWPHFECFFHGAVSFHPYKTAFQKFFPSDKVRYMETYNASEGFFGVQDDLSRDDLLLYLDHGIYYEFIPIDEIDAEFPKTISLEQVQLNEAYALVISTNSGLWRYNVGDVVRFTSITPYRIKITGRTKHYINVFGEELMVENAEMAVSKACEATNAVLANFTAGPIYFNNENKGGHEWIIEFETAPGDKDRFTQLLDQFLKELNSDYEAKRYKDMALLLPTIHFVPEGTFYKWLKLKGKLGGQHKVPRLSNNREYLEDILTKCL,not soluble
13,GAMGNLRLIGVPESDVENGTKLENTLQDIIQENFPNLARQANVQIQEIQRTPQRYSSRRATPRHIIVRFTKVEMKEKMLRAAREKGRVTLKGKPIRLTVD,soluble
14,MAHHHHHHMAAVTQQGNDTRKLRCNVYVASLPLDFDDDQLFDLFSPYGRISSARIMRSKGARQSRGYGFVLFRHASSAEKAIDSLVGYVIGGSRIQVRLAHPEASVAYSGQRGSRSGNSTPGALPEKTLPAASGVITPPPPSSAIISHPNDSGMMVQTYPITTMYPTMYPSVVPQIIAQPQAPVPAAMQQVVFLPQYAQQSNQSTPPTFYMMVPDAMQAVPPTLS,soluble
15,MVKNQFPLVADGIAISDPAKQMALYENEDLITNIRGYYQDKEYDDIARNEEFTAKATSRQTPSSKRFCSNDEKHHYVKEARQKAKQDLKEKRQAYLAKEMAYVPKQVSKKQQPADSSPSQKQATTEMSRFTKKLHQDNYILAELPKEYKEPKNLPQQGTTKKNNYDFLKSSQIYNNKEMRQQREKTIAQELNLSRFEDLP,not soluble
16,RTDTIMVVNVGNHAKKIKMVSFMRDTLINIPGYSYNDNSYDLKLNSAFNLGEQEDHHGAEYVRRALKHNFDIDIKYYVMVDFETFAEAIDTLFPNGVKIDAKFATVGGVAVDSVEVPDDLRMKNGVVPNQTIEVGEQRMDGRTLLNYARFRKDDEGDFGRTVRQQQVMSAVMSQIKD,not soluble
17,MGSDKIHHHHHHMNYTKMRGVEEKLVESIVRRTIDTAEARLRKYVFTPTGEKRPERKPLAKLKEEIESFLRTRENKLLVLYGLRGVGKTTMLAQIYFKLLPQIPRERLVYVSLDKLRPLGISLNYFVQAYERLLGERIEEFSQPTFLFIDEAHYDENFGITVKDLYDSASNLMIVVTGSSSLPLKLDPDLMRRAKKLRVPPLTFTEYLLLKRGLQIPEELSAALKHAFLNCDFSGVEEKLDGVLLKFTEKDVEDYLIQGSLPIYLTSKNPLEDAYEILRKIVEVDLVLEGLSETTREKALGLLLLLASGESLAYDELSSTLGLAKGTVEKLIEKLEDLEVIFPVRAYGSLGKVARKTPKYKFLAPMLRSAVLYEFGLFERDSKTLGMLLEDAVALYLHLLAKEKKLGLHYDAQKGGADFILKGQSRGIVIEVGWGKKGLRQVIKTMKKTGLNCGVVIYNGPLKKKGEVWFVPRELFLLML,not soluble
18,MNIVAKPTSFISGAVDGVVDLKNTYTENQHLKERLEELAQLESEVADLKKENKDLKESLDITDSIRDYDPLNASVISRNPTNWNDQVEIDKGSSDGVKPDMAVTTPSGLIGKVTTTGAKSATVELLTSSDVKNRVSAKVQGKENAFGIINGYDSDTKLLELKQLPYDMKFKKGQKVVTSGLGGKFPAGIFIGTIEKVETDKMGLSQTAFIKPGADMYDLNHVTVLKRSAEAGTTDDDTTSSDTTGGQGSHHHHHH,soluble
19,MGSDKIHHHHHHMVATPNSSYISPEDYLKGEETSPIKHEYRQGQVYAMAGASNAHVIISLNIASMLRNHLRGSGCQAYISDTKVHIESINVYYYPDVTVSCDQRDRAFNNFLRYPCLIVEVLSPTTEAFDRGDKFADYRQMESLQEYVLISQTRLNVECFRRNPESQWVLYPYGKEDIIHLASVDFRCAVADFYEDVTFESL,not soluble
20,MASTVLNVPIAQPENGSSDKIPKWSARAIKSLAMGELEARKLKYPSTGTEAILMGILVEGTSTVAKFLRGNGVTLFKVRDETLSLLGKSDMYFFSPEHPPLTEPAQKAIAWAIDEKNKSDVDGELTTAYLLLGVWSQKDSAGRQILEKLGFNEDKAKEVEKSMNEDVDLSFKKQGQLEHHHHHH,soluble
21,MGSDKIHHHHHHMTVCIACGSTKVEPFLDLHETTLANKFLAPEEIGAVEPRHPLVVGFCPECSHVQLTHLVPPAAMFEDYLYISSLSKTLVGHLHGLAATVIERFKLGADDLFIDVGCNDGTLLSEAKRRGVRILGIDPAKNLAPLAKKNGVDTLVAFFGTETAAKVVAEHGKASVVTATNVFPHIPVLDDLVKGLDVVLKPGGVFVAEAHYLGDLLDACAFDTVYHEHCSYWSLHAAQYMFQRHGFEVVDIQRLPIHHGQLRLFAMRKGEGQPTAAVATLLAEEVKRGMTGIECYRAFAKRVEAIREELHAAFAGFKAAGKTVVGYGAPAKGNTLLSYIGFGPEQLAYIADKSPLKQGRVTPGTHIPVVGPERLLADQPDYVLLLAWNFADEILVEQAEYRARGGKFILPVPEVKIV,not soluble
